Molecular target: APP695 with C-terminal dilysine and the mutation KM-DA594-597 to SYEA594-597, expressed in HEK 293 derivative cells, P05067
Sequence (P05067 whole entry, looked up, change not shown, tested part not stated): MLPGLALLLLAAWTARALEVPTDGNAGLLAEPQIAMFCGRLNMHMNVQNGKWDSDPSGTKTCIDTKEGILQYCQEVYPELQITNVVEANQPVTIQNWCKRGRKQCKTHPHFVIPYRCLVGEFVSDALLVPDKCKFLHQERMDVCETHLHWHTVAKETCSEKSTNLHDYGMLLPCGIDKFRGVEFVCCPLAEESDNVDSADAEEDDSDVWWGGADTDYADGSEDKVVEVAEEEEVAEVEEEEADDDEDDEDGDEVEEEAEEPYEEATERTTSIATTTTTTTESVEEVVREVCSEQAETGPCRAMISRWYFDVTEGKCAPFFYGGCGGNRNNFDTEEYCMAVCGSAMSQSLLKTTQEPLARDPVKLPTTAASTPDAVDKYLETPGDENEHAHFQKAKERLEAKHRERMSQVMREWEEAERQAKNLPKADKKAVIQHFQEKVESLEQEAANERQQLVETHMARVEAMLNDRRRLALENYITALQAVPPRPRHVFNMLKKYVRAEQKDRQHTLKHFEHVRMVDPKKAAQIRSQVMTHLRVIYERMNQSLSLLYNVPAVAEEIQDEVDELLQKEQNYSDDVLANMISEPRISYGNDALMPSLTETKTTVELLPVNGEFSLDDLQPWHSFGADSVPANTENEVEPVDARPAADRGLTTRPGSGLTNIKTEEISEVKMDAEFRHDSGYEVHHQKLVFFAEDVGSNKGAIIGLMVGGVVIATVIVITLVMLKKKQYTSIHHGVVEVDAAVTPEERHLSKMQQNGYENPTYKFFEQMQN

B1: Hu-Asp2 expressed in a stable HEK-293 derivative cell line that expresses higher levels of Hu-Asp2 (protein)
chain: ETDEEPEEPGRRGSFVEMVDNLRGKSGQGYYVEMTVGSPPQTLNILVDTGSSNFAVGAAPHPFLHRYYQRQLSSTYRDLRKGVYVPYTQGKWEGELGTDLVSIPHGPNVTVRANIAAITESDKFFINGSNWEGILGLAYAEIARPDDSLEPFFDSLVKQTHVPNLFSLHLCGAGFPLNQSEVLASVGGSMIIGGIDHSLYTGSLWYTPIRREWYYEVIIVRVEINGQDLKMDCKEYNYDKSIVDSGTTNLRLPKKVFEAAVKSIKAASSTEKFPDGFWLGEQLVCWQAGTTPWNIFPVISLYLMGEVTNQSFRITILPQQYLRPVEDVATSQDDCYKFAISQSSTGTVMGAVIMEGFYVVFDRARKRIGFAVSACHVHDEFRTAAVEGPFVTLDMEDCGYNIPQTDESTLMTIAYVMAAICALFMLPLCLMVCQWRCLRCLRQQHDDFADDISLLK
β-secretase cleavage product CTF-99, Western blot with antibody C8: both mutant APP variants were proficiently cleaved by Asp2

Reference: patent publication US20040254341
